Where a chain is given by its changes, count along the chain named. Blank lines part the entries; values can stand above or below the binder they belong to.
Experiments:
[1] = molecular target: T1, PD-1 antigen (ELISA of Example 2) (human, UniProt Q15116 25-167, limits assumed); assay: ELISA, signal on PD-1 antigen; also: test concentration or dose not given here
[2] = molecular target: T1, PD-1 antigen (ELISA of Example 2); assay: ELISA, signal on PD-1 antigen over control
[3] = molecular target: T2, human PD-L1-Fc (SinoBiological) (human, UniProt Q9NZQ7 19-239); assay: BLI (Octet RED96), VHH on Penta-HIS sensor, human PD-L1-Fc in solution
T2 construct: Bought; not shown: Fc of a bought fusion protein
T2 sequence (Q9NZQ7 19-239 limits assumed): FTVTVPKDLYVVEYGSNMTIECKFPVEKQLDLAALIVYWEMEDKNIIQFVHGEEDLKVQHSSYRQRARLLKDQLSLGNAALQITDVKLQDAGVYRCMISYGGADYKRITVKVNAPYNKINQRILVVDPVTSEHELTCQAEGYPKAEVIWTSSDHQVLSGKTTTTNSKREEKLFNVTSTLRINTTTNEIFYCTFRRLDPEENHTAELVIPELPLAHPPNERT

[4] = molecular target: T3, cynomolgus PD-L1-Fc (SinoBiological) (cynomolgus, UniProt G7PSE7 19-238); assay: BLI (Octet RED96), VHH on Penta-HIS sensor, cynomolgus PD-L1-Fc in solution
T3 construct: Bought; also called Cyno PD-L1; not shown: Fc carrier (and any linker) of the bought SinoBiological fusion
T3 sequence (G7PSE7 entry or part of it limits assumed): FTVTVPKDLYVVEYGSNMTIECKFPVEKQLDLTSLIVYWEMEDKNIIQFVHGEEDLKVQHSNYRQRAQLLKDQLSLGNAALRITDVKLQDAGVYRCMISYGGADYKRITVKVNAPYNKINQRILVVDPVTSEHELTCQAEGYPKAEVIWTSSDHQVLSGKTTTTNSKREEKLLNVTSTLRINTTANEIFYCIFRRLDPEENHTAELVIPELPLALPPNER

[5] = molecular target: T4, recombinant extracellular domain of PD-L1 with C-terminal FLAG-tag (human, UniProt Q9NZQ7 19-238); assay: plate binding assay, VHH against hPD-1-hFc binding to immobilised PD-L1 ECD-FLAG
T4 construct: extracellular domain; The sentence itself names no species; Immobilised through the M2 anti-FLAG antibody; not shown: C-terminal FLAG-tag
T4 sequence (Q9NZQ7 19-238): as the sequence (G7PSE7 entry or part of it limits assumed) above, with T33A, S34A, N62S, Q68R, R82Q, L173F, A185T, I192T, L215H counted along it

T1 sequence (Q15116 25-167 limits assumed): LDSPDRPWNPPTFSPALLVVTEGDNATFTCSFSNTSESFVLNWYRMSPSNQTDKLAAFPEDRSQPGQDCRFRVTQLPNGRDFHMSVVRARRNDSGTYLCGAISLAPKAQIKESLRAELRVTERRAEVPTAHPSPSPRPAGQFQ

B1: 2PD-12 (VHH)
VHH: QVQLQESGGGLVQAGGSLRLSCAVSGFILDYYGIGWFRQAPGKEREAVSCISSSDGSTYYADSVKGRFTISRDNALNTLYLQMNSLKPEDTAVYHCATATLCDGGIWGYWGQGTQVTVSS
notes: PD-1 VHH
ELISA A [1]: 3.81
A/control [2]: 21.5

B5: 2PD8 (VHH)
VHH: QVQLQESGGGSVQAGDSLRLSCTASGRTFSSLGMGWFRQAPGKEREFVSAIAWNGASTYYTESVKGRFTISRDDAKNTVYLQMNSLKPTDTAVYFCAASGLGSVVVTANEYDYWGQGTQVTVSS
notes: PD-1 VHH
ELISA A [1]: 0.763
A/control [2]: 3.03

B7: 2PD23 (VHH)
VHH: QVQLQESGGGLVQPGGSLRLSCAASGFSMDYYAIAWFRQAPGKEREEISCITGSDFMVDTYYVASVKGRFTISRDNAENTAYLQMNNLKPEDTGVYFCAVRSTANTLCPSHYSVMDYWGKGTQVTVSS
notes: PD-1 VHH
ELISA A [1]: 0.94
A/control [2]: 4.56

B8: 2PD26 (VHH)
VHH: B7 VHH with P14A
notes: PD-1 VHH
ELISA A [1]: 0.718
A/control [2]: 4.2

B11: 2LIG176 VHH-(His)6 (pHEN6C-PelB-PD-L1 VHH-(His)6) (VHH)
VHH: QVQLQESGGGLVQAGGSLRLSCAASESIFSIEAMGWYRQAPGKQRELVAAIFGGGFTNYADSVKGRFTISRDNANRTVYLQMNSLKPEDTAVYYCNADLVSGSSRLYDYWGQGTQVTVSS
Kd [3]: 6.87 nM
koff [3]: 0.00805 s⁻¹
kon [3]: 1.18e+06 M⁻¹ s⁻¹
Kd [4]: 11.3 nM
koff [4]: 0.00573 s⁻¹
kon [4]: 508000 M⁻¹ s⁻¹
IC50 [5]: 5.68 ng/mL

B12: 2PD-16 (VHH)
VHH: QVQLQESGGGLVQAGGSLRLSCAASGGFNRVSYMGWYRQAPGTKRELVASVTSGGEITIADSVKGRFTVSRDNSKNTLYLQMNGLKPEDGATYWCNADIWVSDARMYNYWGQGTQVTVSS
notes: PD-1 VHH
ELISA A [1]: 1.83
A/control [2]: 3.84

B14: 2LIG189 VHH-(His)6 (pHEN6C-PelB-PD-L1 VHH-(His)6) (VHH)
VHH: QVQLQESGGGLVQAGGSLRLSCAASGKIFSGNDMGWYRQAPGKQRELVGIITSGGITDYADAVKGRFTISRDNAKNMMYLQMNSLKPEDTAVYYCNMRDRTIWWGQGTQVTVSS
Kd [3]: 3.03 nM
koff [3]: 0.000524 s⁻¹
kon [3]: 174000 M⁻¹ s⁻¹
Kd [4]: 3.8 nM
koff [4]: 0.000437 s⁻¹
kon [4]: 114000 M⁻¹ s⁻¹
IC50 [5]: 8.81 ng/mL

B15: 2LIG27 VHH-(His)6 (pHEN6C-PelB-PD-L1 VHH-(His)6) (VHH)
VHH: QVQLQESGGGVVQAGGSLRLSCTASGTIFSINRMDWFRQAPGKQRELVALITSDGTPTYADSAKGRFTISRDNTKKTVSLQMNSLKPEDTAVYYCHVSSGVYNYWGQGTQVTVSS
Kd [3]: 7.51 nM
koff [3]: 0.0035 s⁻¹
kon [3]: 472000 M⁻¹ s⁻¹
Kd [4]: 8.74 nM
koff [4]: 0.0028 s⁻¹
kon [4]: 321000 M⁻¹ s⁻¹
IC50 [5]: 9.57 ng/mL

B16: 2LIG97 VHH-(His)6 (pHEN6C-PelB-PD-L1 VHH-(His)6) (VHH)
VHH: B15 VHH with V11L, G16E
Kd [3]: 4.35 nM
koff [3]: 0.00198 s⁻¹
kon [3]: 423000 M⁻¹ s⁻¹
Kd [4]: 9.16 nM
koff [4]: 0.00293 s⁻¹
kon [4]: 319000 M⁻¹ s⁻¹
IC50 [5]: 4.81 ng/mL

B17: 2LIG3 VHH-(His)6 (pHEN6C-PelB-PD-L1 VHH-(His)6) (VHH)
VHH: B15 VHH with V11L, R33H, T56F
Kd [3]: 1.19 nM
koff [3]: 0.000448 s⁻¹
kon [3]: 373000 M⁻¹ s⁻¹
Kd [4]: 0.89 nM
koff [4]: 0.000318 s⁻¹
kon [4]: 358000 M⁻¹ s⁻¹
IC50 [5]: 18.9 ng/mL

B18: 2LIG99 VHH-(His)6 (pHEN6C-PelB-PD-L1 VHH-(His)6) (VHH)
VHH: B15 VHH with V11L, T58A
Kd [3]: 0.875 nM
koff [3]: 0.000634 s⁻¹
kon [3]: 729000 M⁻¹ s⁻¹
Kd [4]: 1.01 nM
koff [4]: 0.000585 s⁻¹
kon [4]: 584000 M⁻¹ s⁻¹
IC50 [5]: 6.21 ng/mL

Further lines, results first:

ELISA A [1]: 4
A/control [2]: 45.1
B2: 3PD82 (VHH)
VHH: B1 VHH with L11S, A14P, H95Y
notes: PD-1 VHH

ELISA A [1]: 3.58
A/control [2]: 40.4
B3: 3PD55 (VHH)
VHH: B1 VHH with V12A, A23E, V24G, F27L, I28S, Y32D, I34V, D73G, H95Y
notes: PD-1 VHH

ELISA A [1]: 2.31
A/control [2]: 6.38
B4: 2PD-152 (VHH)
VHH: QVQLQESGGGLVQTGESLRLSCAASGIIKSINFMGWYRQPPGTKRELVASTTSDGRTTVADSVKGRFTISRDNAKNTIYLEMSSLKPEDTATYWCNADIWLPSDRMYNYWGQGTQVTVSS
notes: PD-1 VHH

ELISA A [1]: 1.14
A/control [2]: 3.45
B6: 2PD27 (VHH)
VHH: B5 VHH with A14P, D16K, T23A
notes: PD-1 VHH

ELISA A [1]: 1.46
A/control [2]: 6.9
B9: 2PD-106 (VHH)
VHH: B7 VHH with A23S, E78K, Y82H, N87S
notes: PD-1 VHH

ELISA A [1]: 1.34
A/control [2]: 5.23
B10: 2PD90 (VHH)
VHH: B7 VHH with A23S, M29V, E78K, N87S, V114I
notes: PD-1 VHH

ELISA A [1]: 2.51
A/control [2]: 3.59
B13: 2PD71 (VHH)
VHH: B12 VHH with A14T, G16E, T43S, I59V, S74N
notes: PD-1 VHH

Kd [3]: 8.77 nM
koff [3]: 0.00419 s⁻¹
kon [3]: 484000 M⁻¹ s⁻¹
Kd [4]: 5.98 nM
koff [4]: 0.00305 s⁻¹
kon [4]: 812000 M⁻¹ s⁻¹
IC50 [5]: 12.8 ng/mL
B19: 3LIG8 VHH-(His)6 (pHEN6C-PelB-PD-L1 VHH-(His)6) (VHH)
VHH: B15 VHH with V11L, A14P

ELISA A [1]: 2.97
A/control [2]: 4.38
B20: 2PD82 (VHH)
VHH: QVQLQESGGGLVQPGGSLRLSCTTSGFAFGSYDMGWVRQAPGKGPEWVSGINSGGRITDYADSVTGRFTISRDNAKNTLYLQMNSLKPEDTAVYYCAQGDRSSWHYYGMDYWGKGTQVTVSS
notes: PD-1 VHH

Reference: patent US20250361305A1 (ORIONIS BIOSCIENCES, published 2025)
